Test results: PMC11417369, “DNA sequence and chromatin differentiate sequence-specific transcription factor binding in the human malaria parasite Plasmodium falciparum”

T1: PF3D7_0420300 D1 (Plasmodium falciparum, UniProt Q8I1N6 1956-2015)
T1 sequence: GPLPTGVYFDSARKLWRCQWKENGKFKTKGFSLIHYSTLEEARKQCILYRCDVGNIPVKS


Target: T1, PF3D7_0420300 D1
Assay: gcPBM; about 25 ug protein; PBS, 1% milk, 0.2 mg/ml BSA, salmon testes DNA, 0.03% Triton X-100
Conditions: tags: N-terminal GST (pGEX-4T-1), kept; label: surface-attached array probe

Binder | binding signal
CACACA_site2222 (dsDNA) DNA 1: GGAAAAAATATATGCACACCCCCCAAAAAAAAAAAA DNA 2: TTTTTTTTTTTTGGGGGGTGTGCATATATTTTTTCC | 10.7 ln median PBM intensity, better of two orientations
CACACA_negctrl_site1218 (dsDNA) DNA 1: TAATTTTTTTTTTTTTTTTTTTTTTTTTTTTTTTTA DNA 2: TAAAAAAAAAAAAAAAAAAAAAAAAAAAAAAAATTA | 8.72 ln median PBM intensity, better of two orientations
CACACA_negctrl_site558 (dsDNA) DNA 1: TTTTTTATATTAAATGAAGAATATACAAAATTTTAA DNA 2: TTAAAATTTTGTATATTCTTCATTTAATATAAAAAA | 8.73 ln median PBM intensity, better of two orientations
CACACA_negctrl_site1078 (dsDNA) DNA 1: TAAATTCTTTAAAACTTTAAAACAAAAAAAAAAAAA DNA 2: TTTTTTTTTTTTTGTTTTAAAGTTTTAAAGAATTTA | 8.74 ln median PBM intensity, better of two orientations
CACACA_negctrl_site1137 (dsDNA) DNA 1: ATTATAAAAGAATTTTTTTTTATTTCATTAAAATAT DNA 2: ATATTTTAATGAAATAAAAAAAAATTCTTTTATAAT | 8.74 ln median PBM intensity, better of two orientations
CACACA_negctrl_site916 (dsDNA) DNA 1: TTTTTAAATAACCTATATATTATTATGAAACATAAA DNA 2: TTTATGTTTCATAATAATATATAGGTTATTTAAAAA | 8.75 ln median PBM intensity, better of two orientations
CACACA_negctrl_site392 (dsDNA) DNA 1: TGGTCTTTTAAACAAAAATATAAATTTTTAAATATG DNA 2: CATATTTAAAAATTTATATTTTTGTTTAAAAGACCA | 8.76 ln median PBM intensity, better of two orientations
CACACA_negctrl_site307 (dsDNA) DNA 1: TATTCTATAAATATATTTTTTTAATTTTTTATTTTA DNA 2: TAAAATAAAAAATTAAAAAAATATATTTATAGAATA | 8.77 ln median PBM intensity, better of two orientations
CACACA_site319 (dsDNA) DNA 1: TATGTAACCTGTTTTACACACCCCCACCCCCCTCTT DNA 2: AAGAGGGGGGTGGGGGTGTGTAAAACAGGTTACATA | 10.7 ln median PBM intensity, better of two orientations
CACACA_negctrl_site1120 (dsDNA) DNA 1: TCTCAAAAAAAAAAAAAAAAAAAAAAATTAAAAAAT DNA 2: ATTTTTTAATTTTTTTTTTTTTTTTTTTTTTTGAGA | 8.78 ln median PBM intensity, better of two orientations
CACACA_negctrl_site1696 (dsDNA) DNA 1: TTCCTTCAAAATTTAAGTAATAAGATAAAAATATAA DNA 2: TTATATTTTTATCTTATTACTTAAATTTTGAAGGAA | 8.8 ln median PBM intensity, better of two orientations
CACACA_negctrl_site27 (dsDNA) DNA 1: TTTTTTGGGTAAAATTATAAAATATGTATATATAAA DNA 2: TTTATATATACATATTTTATAATTTTACCCAAAAAA | 8.81 ln median PBM intensity, better of two orientations
CACACA_negctrl_site553 (dsDNA) DNA 1: TTTTTATATTATTTAATGAGAAATAATTATAAACAA DNA 2: TTGTTTATAATTATTTCTCATTAAATAATATAAAAA | 8.82 ln median PBM intensity, better of two orientations
CACACA_negctrl_site1280 (dsDNA) DNA 1: TTATTAAGTAAATCACATTTAATTTTTTTTTTTTTT DNA 2: AAAAAAAAAAAAAATTAAATGTGATTTACTTAATAA | 8.82 ln median PBM intensity, better of two orientations
CACACA_negctrl_site514 (dsDNA) DNA 1: AGATTTCAAGGTAATAGATCAATTTTAATTTGTAAA DNA 2: TTTACAAATTAAAATTGATCTATTACCTTGAAATCT | 8.83 ln median PBM intensity, better of two orientations
CACACA_negctrl_site17 (dsDNA) DNA 1: AAAAGAAAAAAAAAAAAAAAAAAAATTAAAATATAA DNA 2: TTATATTTTAATTTTTTTTTTTTTTTTTTTTCTTTT | 8.84 ln median PBM intensity, better of two orientations
CACACA_negctrl_site1272 (dsDNA) DNA 1: ATTTTTTTTTTTTTTTTTTTTTTTTAGATTAAGAAA DNA 2: TTTCTTAATCTAAAAAAAAAAAAAAAAAAAAAAAAT | 8.84 ln median PBM intensity, better of two orientations
CACACA_negctrl_site892 (dsDNA) DNA 1: TTAATATATAATAAATTTTTTTTTTTTTTTTTTTTT DNA 2: AAAAAAAAAAAAAAAAAAAAATTTATTATATATTAA | 8.85 ln median PBM intensity, better of two orientations
